Key:
type 2 diabetic patients [1] = assay: 2-hour postprandial plasma glucose during standardized meal test (Example 1); type: in vivo, human; conditions: mITT; for 2-hour postprandial plasma glucose change from baseline to Week 24 (LOCF), LS Mean (SE): ANCOVA
From the text: (§1) Criteria for Evaluation: • Efficacy: • Primary Endpoint: • Change in HbA1c from baseline to Week 24 • Secondary Endpoints: • Change in 2-hour PPG during meal test from baseline to Week 24 • Change in 2-hour plasma glucose excursion during meal test from baseline to Week 24 • Percentage of patients reaching HbA1c ≤6.5% or <7% at Week 24 • Change in 7-point SMPG profiles from baseline to Week 24 (each time point and mean daily value) • Change in body weight from baseline to Week 24, • Average daily Insulin glargine dose at Week 24 • Change in FPG from baseline to Week 24 • Percentage of patients requiring rescue therapy during the 24-week open-label treatment period • Change in 30-minute and 1-hour PPG and plasma glucose excursion during meal test from baseline to week 24 • Percentage of patients reaching HbA1c <7% at week 24 with no documented symptomatic hypoglycemia during the 24-week open label treatment period • Percentage of patients reaching HbA1c <7% with no weight gain at week 24
(§2) All continuous secondary efficacy endpoints were analyzed using a similar ANCOVA model with treatment, randomization strata of screening HbA1c (<8%, ≥8%), randomization strata of screening BMI (<30 kg/m^2, ≥30 kg/m^2) and country as fixed effects and using the baseline value of the corresponding parameter as a covariate. Insulin glargine dose was not included in the ANCOVA model as a covariate since patients enrolled were insulin-naïve.

type 2 diabetic patients [2] = assay: 2-hour plasma glucose excursion during standardized meal test (Example 1); type: in vivo, human; conditions: mITT population; for 2-hour plasma glucose excursion change from baseline to Week 24 (LOCF), LS Mean (SE): ANCOVA
From the text: The diabetes type 2 patient may have a glucose excursion (in particular a 2-hour postprandial glucose excursion of at least 2 mmol/L, at least 3 mmol/L, at least 4 mmol/L, at least 5 mmol/L, at least 5.5 mmol/L, at least 6 mmol/L, at least 6.5 mmol/L, or at least 7 mmol/L at the onset of the treatment with the composition of the present invention. In the present invention, the glucose excursion is in particular the difference of the 2-hour postprandial plasma glucose concentration and the plasma glucose concentration 30 minutes prior to a meal test.
as §1, §2

type 2 diabetic patients [3] = assay: Fasting plasma glucose (Example 1); type: in vivo, human; conditions: mITT population; for Fasting plasma glucose change from baseline to Week 24 (LOCF), LS Mean (SE): ANCOVA
From the text: as §1, §2

type 2 diabetic patients [4] = assay: Symptomatic hypoglycemia (Example 1); type: in vivo, human; conditions: Safety population
From the text: Safety: Adverse events, serious adverse events, symptomatic hypoglycemia, vital signs, electrocardiogram (ECG), safety laboratory values.
Symptomatic hypoglycemia events were documented on a specific hypoglycemia event form, and not an AE CRF page, and thus were not included in the TEAE summaries.

type 2 diabetic patients [5] = assay: Injection site reactions and allergic reactions adjudicated by ARAC (Example 1); type: in vivo, human
From the text: A total of 6 patients (5 patients in the combination group and 1 patient in the insulin glargine group) experienced injection site reactions (Table 19). None of these reactions were considered serious or severe or led to treatment discontinuation.
A total of 2 patients (1 [0.6%] in each group) reported 6 events positively adjudicated as allergic reactions by the ARAC with the same diagnosis of allergic rhinitis. None was adjudicated as possibly related to the IMP (table 20).

type 2 diabetic patients [6] = assay: Lipase, amylase and calcitonin monitoring (Example 1); design: species or system human; conditions: in vivo
From the text: Per protocol, any increase in amylase and/or lipase above twice the upper limit of normal range (ULN) or in Calcitonin ≥20 pg/mL that had been confirmed by a repeat measurement was to be monitored and documented on a specific AE form. […] No patients reported a TEAE of increased calcitonin (≥20 pg/mL).
The number of patients who had at least 1 value of lipase or amylase ULN, or at least 1 value of calcitonin ≥20 pg/ml during the on-treatment period was also summarized. One patient in the insulin glargine group had at least 1 value of amylase ≥3 ULN, and 5 patients (4 in the combination group and 1 in the insulin glargine group) had at least 1 value of lipase ≥3 ULN. One patient in the insulin glargine group had 1 value of calcitonin ≥20 pg/ml (but <50 pg/ml) with retested values within the normal range.

type 2 diabetic patients [7] = assay: Major cardiovascular events adjudicated by CAC (Example 1); design: species or system human; conditions: in vivo
From the text: One patient in the combination group and one patient in the insulin glargine group had respectively two events (hospitalization for unstable angina and percutaneous coronary intervention (PCI]) and one event (PCI) adjudicated as major cardiovascular events by cardiovascular events adjudication committee (CAC).

type 2 diabetic patients [8] = conditions: in vivo
Experimental: Safety: The safety analysis was conducted on the safety population, defined as all randomized patients who received at least one dose of IMP (regardless of the amount of treatment administered). The evaluation of AEs, laboratory, vital sign, and ECG data was descriptive.

[9] = investigator reported terms, Safety population

For “Gly(A21)-Arg(B31)-Arg(B32)-human insulin [Insulin Glargine]”, the “2-hour postprandial plasma glucose at Week 24 (LOCF), Mean (SD)” value (type 2 diabetic patients [1]) was 11.55 (2.83) mmol/L, the “2-hour postprandial plasma glucose at Week 24 (LOCF), Median” value (type 2 diabetic patients [1]) was 11.10 mmol/L and the “2-hour postprandial plasma glucose change from baseline to Week 24 (LOCF), Mean (SD)” value (type 2 diabetic patients [1]) was −3.96 (4.05) mmol/L. The “2-hour postprandial plasma glucose change from baseline to Week 24 (LOCF), Median” value (type 2 diabetic patients [1]) was -3.90 mmol/L, the “2-hour postprandial plasma glucose change from baseline to Week 24 (LOCF), LS Mean (SE)” value (type 2 diabetic patients [1]) was −4.33 (0.274) mmol/L and the “2-hour postprandial plasma glucose change from baseline to Week 24 (LOCF), LS Mean (SE)” value (type 2 diabetic patients [1]; listed as insulin glargine) was -4.33 mmol/L. The “2-hour plasma glucose excursion at Week 24 (LOCF), Mean (SD)” value (type 2 diabetic patients [2]) was 5.33 (2.79) mmol/L, the “2-hour plasma glucose excursion at Week 24 (LOCF), Median” value (type 2 diabetic patients [2]) was 5.05 mmol/L and the “2-hour plasma glucose excursion change from baseline to Week 24 (LOCF), Mean (SD)” value (type 2 diabetic patients [2]) was −0.61 (3.03) mmol/L. The “2-hour plasma glucose excursion change from baseline to Week 24 (LOCF), Median” value (type 2 diabetic patients [2]) was -0.75 mmol/L, the “2-hour plasma glucose excursion change from baseline to Week 24 (LOCF), LS Mean (SE)” value (type 2 diabetic patients [2]) was −0.67 (0.269) mmol/L and the “2-hour plasma glucose excursion change from baseline to Week 24 (LOCF), LS Mean (SE)” value (type 2 diabetic patients [2]; listed as insulin glargine) was -0.67 mmol/L. The “Fasting plasma glucose at Week 24 (LOCF), Mean (SD)” value (type 2 diabetic patients [3]) was 6.20 (1.35) mmol/L, the “Fasting plasma glucose at Week 24 (LOCF), Median” value (type 2 diabetic patients [3]) was 5.95 mmol/L and the “Fasting plasma glucose change from baseline to Week 24 (LOCF), Mean (SD)” value (type 2 diabetic patients [3]) was −3.28 (2.39) mmol/L. For the same substance, the “Fasting plasma glucose change from baseline to Week 24 (LOCF), Median” value (type 2 diabetic patients [3]) was -3.00 mmol/L, the “Fasting plasma glucose change from baseline to Week 24 (LOCF), LS Mean (SE)” value (type 2 diabetic patients [3]) was −3.51 (0.128) mmol/L and the “Fasting plasma glucose change from baseline to Week 24 (LOCF), LS Mean (SE)” value (type 2 diabetic patients [3]; listed as insulin glargine) was -3.51 mmol/L. The “Documented symptomatic hypoglycemia (plasma glucose <54 mg/dL [3.0 mmol/L]): Number of events” value (type 2 diabetic patients [4]) was 10, the “Documented symptomatic hypoglycemia (plasma glucose <54 mg/dL [3.0 mmol/L]): Number of events per 100 patient years” value (type 2 diabetic patients [4]) was 13.2 events per 100 patient years and the “Documented symptomatic hypoglycemia (plasma glucose <54 mg/dL [3.0 mmol/L]): Number of patients with events” value (type 2 diabetic patients [4]) was 4 (2.5%) n (%). For the same substance, the “Documented symptomatic hypoglycemia (plasma glucose <60 mg/dL [3.3 mmol/L]): Number of events” value (type 2 diabetic patients [4]) was 18, the “Documented symptomatic hypoglycemia (plasma glucose <60 mg/dL [3.3 mmol/L]): Number of events per 100 patient years” value (type 2 diabetic patients [4]) was 23.8 events per 100 patient years and the “Documented symptomatic hypoglycemia (plasma glucose <60 mg/dL [3.3 mmol/L]): Number of patients with events” value (type 2 diabetic patients [4]) was 9 (5.6%) n (%). The “Documented symptomatic hypoglycemia (plasma glucose <=70 mg/dL [3.9 mmol/L]): Number of events” value (type 2 diabetic patients [4]) was 79, the “Documented symptomatic hypoglycemia (plasma glucose <=70 mg/dL [3.9 mmol/L]): Number of events per 100 patient years” value (type 2 diabetic patients [4]) was 104.5 events per 100 patient years and the “Documented symptomatic hypoglycemia (plasma glucose <=70 mg/dL [3.9 mmol/L]): Number of patients with events” value (type 2 diabetic patients [4]) was 37 (22.8%) n (%). The “Probable symptomatic hypoglycemia: Number of events” value (type 2 diabetic patients [4]) was 5, the “Probable symptomatic hypoglycemia: Number of events per 100 patient years” value (type 2 diabetic patients [4]) was 6.6 events per 100 patient years and the “Probable symptomatic hypoglycemia: Number of patients with events” value (type 2 diabetic patients [4]) was 5 (3.1%) n (%). For the same substance, the “Severe symptomatic hypoglycemia: Number of events” value (type 2 diabetic patients [4]) was 0, the “Severe symptomatic hypoglycemia: Number of events per 100 patient years” value (type 2 diabetic patients [4]) was 0.0 events per 100 patient years and the “Severe symptomatic hypoglycemia: Number of patients with events” value (type 2 diabetic patients [4]) was 0 n (%). For the same substance, the “Symptomatic hypoglycemia: Number of events per 100 patient years” value (type 2 diabetic patients [4]) was 111.1 events per 100 patient years, the “Symptomatic hypoglycemia: Number of events” value (type 2 diabetic patients [4]; TEAE period) was 84 and the “Symptomatic hypoglycemia: Number of patients with events” value (type 2 diabetic patients [4]; documented, probable and severe, TEAE period) was 40 (24.7%) n (%). The Injection site reaction (type 2 diabetic patients [5]; ARAC diagnosis terms, Safety population) was 0 n (%), the “Rhinitis allergic (ARAC diagnosis ALLERGIC RHINITIS)” value (type 2 diabetic patients [5]; Not related to IMP, Safety population) was 1 (0.6%) n (%) and the “Events adjudicated as an allergic reaction by ARAC” value (type 2 diabetic patients [5]; Not related to IMP, TEAE period, Safety population) was 1 (0.6%) n (%). The “Any injection site reactions” value (type 2 diabetic patients [5]; TEAE period, Safety population) was 1 (0.6%) n (%), the “Injection site reactions: PTs coded from the ARAC diagnosis terms” value (type 2 diabetic patients [5]; TEAE period, Safety population) was 0 n (%) and the “Injection site reactions: PTs coded from the investigator reported terms” value (type 2 diabetic patients [5]; TEAE period, Safety population) was 1 (0.6%) n (%). The “Patients who experienced injection site reactions” value (type 2 diabetic patients [5]; in vivo) was 1 patients, the Injection site pain (type 2 diabetic patients [5]; [9]) was 1 (0.6%) n (%) and the Injection site pruritus (type 2 diabetic patients [5]; [9]) was 0 n (%). The Injection site rash (type 2 diabetic patients [5]; [9]) was 0 n (%), the Injection site urticaria (type 2 diabetic patients [5]; [9]) was 0 n (%) and the “Rhinitis allergic (ARAC diagnosis ALLERGIC RHINITIS)” value (type 2 diabetic patients [5]; relationship to study treatment: All, Safety population) was 1 (0.6%) n (%). For the same substance, the “Events adjudicated as an allergic reaction by ARAC” value (type 2 diabetic patients [5]; relationship to study treatment: All, TEAE period, Safety population) was 1 (0.6%) n (%), the “Patients with 1 value of calcitonin ≥20 pg/ml (but <50 pg/ml)” value (type 2 diabetic patients [6]) was “One” and the “Patients with TEAE of amylase increased (>2 ULN) reported on the specific AE form” value (type 2 diabetic patients [6]) was 1 patient. For the same substance, the “Patients with TEAE of lipase increased (>2 ULN) reported on the specific AE form” value (type 2 diabetic patients [6]) was 1 [0.6%] n (%), the “Patients with at least 1 value of amylase ≥3 ULN” value (type 2 diabetic patients [6]) was “One” and the “Patients with at least 1 value of lipase ≥3 ULN” value (type 2 diabetic patients [6]) was 1 patients. For the same substance, the “Events adjudicated as major cardiovascular events by CAC” value (type 2 diabetic patients [7]) was “one”, the “Patients with events adjudicated as major cardiovascular events by CAC” value (type 2 diabetic patients [7]) was “one” and the “TEAE: HLGT: Infections - pathogen unspecified” value (type 2 diabetic patients [8]) was 31 (19.1%) n (%). For the same substance, the “TEAE: HLGT: Ocular infections, irritations and inflammations” value (type 2 diabetic patients [8]) was 4 (2.5%) n (%), the “TEAE: HLGT: Viral infectious disorders” value (type 2 diabetic patients [8]) was 8 (4.9%) n (%) and the “TEAE: HLT: Abdominal and gastrointestinal infections” value (type 2 diabetic patients [8]) was 1 (0.6%) n (%). For the same substance, the “TEAE: HLT: Conjunctival infections, irritations and inflammations” value (type 2 diabetic patients [8]) was 2 (1.2%) n (%), the “TEAE: HLT: Diarrhoea (excl infective)” value (type 2 diabetic patients [8]) was 6 (3.7%) n (%) and the “TEAE: HLT: Upper respiratory tract infections” value (type 2 diabetic patients [8]) was 21 (13.0%) n (%). The “TEAE: HLT: Urinary tract infections” value (type 2 diabetic patients [8]) was 3 (1.9%) n (%), the “TEAE: Infections and infestations” value (type 2 diabetic patients [8]) was 38 (23.5%) n (%) and the “TEAE: Upper respiratory tract infection” value (type 2 diabetic patients [8]) was 5 (3.1%) n (%). For the same substance, the “TEAE: Urinary tract infection” value (type 2 diabetic patients [8]) was 1 (0.6%) n (%), the “Treatment emergent SAE: HLGT: Infections - pathogen unspecified” value (type 2 diabetic patients [8]) was 1 (0.6%) n (%) and the “Treatment emergent SAE: HLT: Urinary tract infections” value (type 2 diabetic patients [8]) was 1 (0.6%) n (%). The “Treatment emergent SAE: Infections and infestations” value (type 2 diabetic patients [8]) was 1 (0.6%) n (%), the “Treatment emergent SAE: Urinary tract infection” value (type 2 diabetic patients [8]) was 1 (0.6%) n (%) and the “TEAE: HLT: Dental and oral soft tissue infections” value (type 2 diabetic patients [8]; po) was 3 (1.9%) n (%).

Reference: patent US11026999B2, “Insulin glargine/lixisenatide fixed ratio formulation” (SANOFI-AVENTIS DEUTSCHLAND GMBH, priority 2013, dated 2021)
